Measured values: patent US20120058906A1 (published 2012)

Tests used:
[1] = biological target: T1, rHuman IGF-1 sR (IGF-1 sR), CF (R&D Systems Cat#391-GR) (human, UniProt P08069 31-932); assay: MSD ECL multi-spot plate, antigen immobilized; Fab 1000 nM; blank spot 427
T1 construct: Purchased soluble receptor; also called insulin-like growth factor-1 soluble receptor; IGF-R1

[2] = biological target: T2, Recombinant Human DLL4 (R&D Systems Cat#1506-D4/CF) (human, UniProt Q9NR61 27-524); assay: as above
T2 construct: Purchased recombinant protein; also called delta-like protein 4

[3] = biological target: T3, rHuman CD44/Fc Chimera, CF (R&D Systems Cat#3660-CD) (human, UniProt P16070 21-220); assay: as above
T3 construct: Purchased Fc chimera; not shown: Fc portion of the purchased chimera

[4] = biological target: T4, rHuman Erythropoietin R/Fc Chimera, CF (R&D Systems Cat#963-ER) (human, UniProt P19235 25-250); assay: as above
T4 construct: Purchased Fc chimera; also called EPO R/Fc; Epo R; not shown: Fc portion of the purchased chimera
T4 sequence: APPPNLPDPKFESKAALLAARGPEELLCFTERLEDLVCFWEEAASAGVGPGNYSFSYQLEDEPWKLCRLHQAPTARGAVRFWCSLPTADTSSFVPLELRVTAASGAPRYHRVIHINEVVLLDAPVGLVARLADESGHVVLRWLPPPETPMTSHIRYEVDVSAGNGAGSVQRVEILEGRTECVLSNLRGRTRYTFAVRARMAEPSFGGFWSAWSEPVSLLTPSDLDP

[5] = biological target: T5, rHuman EGF R/Fc Chimera, CF (R&D Systems Cat#344-ER) (human, UniProt P00533 25-645); assay: as above
T5 construct: Purchased Fc chimera; not shown: Fc portion of the purchased chimera

[6] = biological target: T6, rHuman P-Cadherin/Fc Chimera, CF (R&D Systems Cat#861-PC) (human, UniProt P22223 108-654); assay: as above
T6 construct: Purchased Fc chimera; not shown: Fc portion of the purchased chimera

[7] = biological target: T7, rHuman HGF R/c-MET/Fc Chimera, CF (R&D Systems Cat#358-MT/CF) (human, UniProt P08581 25-932); assay: as above
T7 construct: Purchased Fc chimera; also called HGF R/Fc; not shown: Fc portion of the purchased chimera

[8] = biological target: T8, rHuman Notch-1/Fc Chimera, CF (R&D Systems Cat#3647-TK) (human, UniProt P46531 19-526); assay: as above
T8 construct: Purchased Fc chimera; not shown: Fc portion of the purchased chimera

[9] = biological target: T9, rHuman ErbB2/Fc Chimera, CF (R&D Systems Cat#1129-ER) (human, UniProt P04626 23-652); assay: as above
T9 construct: Purchased Fc chimera; also called HER2/neu; not shown: Fc portion of the purchased chimera

[10] = biological target: T10, rHuman Erythropoietin R/Fc Chimera, CF (R&D Systems Cat#963-ER) (human, UniProt P19235 25-250); assay: ECL (MSD Multi-Spot) binding assay, antigen spotted on plate; Fab 240 nM; blank spot 316
T10 construct: Bought Fc chimera; also called EPO R/Fc; Epo R; Fc part of the bought chimera not given
T10 sequence: T4 sequence

[11] = biological target: T11, rHuman Notch-1/Fc Chimera, CF (R&D Systems Cat#3647-TK) (human, UniProt P46531 19-526); assay: as above
T11 construct: Bought Fc chimera; Fc part of the bought chimera not given

[12] = biological target: T12, Recombinant Human DLL4 (R&D Systems Cat#1506-D4/CF) (human, UniProt Q9NR61 27-524); assay: as above
T12 construct: Bought recombinant protein; also called delta-like protein 4; rHuman DLL4

[13] = biological target: T13, rHuman P-Cadherin/Fc Chimera, CF (R&D Systems Cat#861-PC) (human, UniProt P22223 108-654); assay: as above
T13 construct: Bought Fc chimera; also called CDH3; Fc part of the bought chimera not given

[14] = biological target: T14, rHuman CD44/Fc Chimera, CF (R&D Systems Cat#3660-CD) (human, UniProt P16070 21-220); assay: as above
T14 construct: Bought Fc chimera; Fc part of the bought chimera not given

[15] = biological target: T15, rHuman EGF R/Fc Chimera, CF (R&D Systems Cat#344-ER) (human, UniProt P00533 25-645); assay: ECL (MSD multi-spot), antigen on plate, Fab 50 nM
T15 construct: Bought Fc chimera; also called ErbB-1; not shown: Fc of the bought chimera

[16] = biological target: T16, Recombinant Human DLL4 (R&D Systems Cat#1506-D4/CF) (human, UniProt Q9NR61 27-524); assay: ECL (MSD multi-spot), antigen on plate, Fab 50 nM
T16 construct: Bought recombinant protein; also called delta-like protein 4

[17] = biological target: T17, rHuman P-Cadherin/Fc Chimera, CF (R&D Systems Cat#861-PC) (human, UniProt P22223 108-654); assay: ECL (MSD multi-spot), antigen on plate, Fab 50 nM
T17 construct: Bought Fc chimera; also called CDH3; not shown: Fc of the bought chimera

[18] = biological target: T18, rHuman HGF R/c-MET/Fc Chimera, CF (R&D Systems Cat#358-MT/CF) (human, UniProt P08581 25-932); assay: ECL (MSD multi-spot), antigen on plate, Fab 50 nM
T18 construct: Bought Fc chimera; also called HGF R/Fc; not shown: Fc of the bought chimera
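Also: blank spot per well as comparator with Hit at signal to blank ratio of 4 or more.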

B1: Fab VH5-51_IGHD5-18*01>3_IGHJ4*01_G100R & V3-4_IGLJ1*01 (Fab, V domains shown)
VH: EVQLVQSGAEVKKPGESLKISCKGSGYSFTSYWIGWVRQMPGKGLEWMGIIYPGDSDTRYSPSFQGQVTISADKSISTAYLQWSSLKASDTAMYYCARRRYSYGYDYFDYWGQGTLVTVSS
VL: QTVVTQEPSFSVSPGGTVTLTCGLSSGSVSTSYYPSWYQQTPGQAPRTLIYSTNTRSSGVPDRFSGSILGNKAALTITGAQADDESDYYCVLYMGSGISYVFGTGTKVTVL
notes: It was expressed as a Fab: CH1 with tags from Plasmid A and lambda CL from Plasmid E; also called Fab No. 23
For B1, the ECL signal [1] was 733 ECL signal, the ECL signal [2] was 23400 ECL signal and the ECL signal [3] was 559 ECL signal. It also gave an ECL signal [4] of 666 ECL signal, an ECL signal [5] of 721 ECL signal and an ECL signal [6] of 762 ECL signal. The ECL signal [7] was 778 ECL signal, the ECL signal [8] was 761 ECL signal and the ECL signal [9] was 945 ECL signal.

B2: Fab VH6-1_IGHD3-3*01_IGHJ4*01 & V4-3_IGLJ4*01 (Fab, V domains shown)
VH: QVQLQQSGPGLVKPSQTLSLTCAISGDSVSSNSAAWNWIRQSPSRGLEWLGRTYYRSKWYNDYAVSVKSRITINPDTSKNQFSLQLNSVTPEDTAVYYCAREYYDFWSGYYTDYFDYWGQGTLVTVSS
VL: QPVLTQPTSLSASPGASARLTCTLRSGINLGSYRIFWYQQKPESPPRYLLSYYSDSSKHQGSGVPSRFSGSKDASSNAGILVISGLQSEDEADYYCMIWHSSASFVFGGGTQLIIL
notes: Tested as a Fab made in E. coli; also called IGHV6-1*01
In the case of B2, the ECL signal [10] is reported as 478, the ECL signal [11] is reported as 368 and the ECL signal [12] is reported as 1270. It also gave an ECL signal [13] of 383 and an ECL signal [14] of 470.

B3: Fab VH1-46_IGHD6-6*01_IGHJ1*01_S102A_S103P_S104F & L6_IGKJ1*01_S31K (Fab, V domains shown)
VH: QVQLVQSGAEVKKPGASVKVSCKASGYTFTSYYMHWVRQAPGQGLEWMGIINPSGGSTSYAQKFQGRVTMTRDTSTSTVYMELSSLRSEDTAVYYCAREEYAPFSAEYFQHWGQGTLVTVSS
VL: EIVLTQSPATLSLSPGERATLSCRASQSVSKYLAWYQQKPGQAPRLLIYDASNRATGIPARFSGSGSGTDFTLTISSLEPEDFAVYYCQQRSNWPPWTFGQGTKVEIKR
notes: Fab
Work on B3 yielded an ECL signal [15] of 350 ECL signal, an ECL signal [16] of 35300 ECL signal and an ECL signal [17] of 411 ECL signal. The ECL signal [18] was 257 ECL signal.
